Legend:
170 kD FAPα dimer = molecular target: T1, 170 kD FAPα dimer (Homo sapiens, UniProt Q12884, A207P/T229K/T354R); test: Gelatin zymography with added treatments; type: biochemical
T1 construct: expressed in transfected cells; host or cells: 293 cells stably transfected with pFAP.38 (293-FAP)
T1 sequence (Q12884 1-760 A207P/T229K/T354R): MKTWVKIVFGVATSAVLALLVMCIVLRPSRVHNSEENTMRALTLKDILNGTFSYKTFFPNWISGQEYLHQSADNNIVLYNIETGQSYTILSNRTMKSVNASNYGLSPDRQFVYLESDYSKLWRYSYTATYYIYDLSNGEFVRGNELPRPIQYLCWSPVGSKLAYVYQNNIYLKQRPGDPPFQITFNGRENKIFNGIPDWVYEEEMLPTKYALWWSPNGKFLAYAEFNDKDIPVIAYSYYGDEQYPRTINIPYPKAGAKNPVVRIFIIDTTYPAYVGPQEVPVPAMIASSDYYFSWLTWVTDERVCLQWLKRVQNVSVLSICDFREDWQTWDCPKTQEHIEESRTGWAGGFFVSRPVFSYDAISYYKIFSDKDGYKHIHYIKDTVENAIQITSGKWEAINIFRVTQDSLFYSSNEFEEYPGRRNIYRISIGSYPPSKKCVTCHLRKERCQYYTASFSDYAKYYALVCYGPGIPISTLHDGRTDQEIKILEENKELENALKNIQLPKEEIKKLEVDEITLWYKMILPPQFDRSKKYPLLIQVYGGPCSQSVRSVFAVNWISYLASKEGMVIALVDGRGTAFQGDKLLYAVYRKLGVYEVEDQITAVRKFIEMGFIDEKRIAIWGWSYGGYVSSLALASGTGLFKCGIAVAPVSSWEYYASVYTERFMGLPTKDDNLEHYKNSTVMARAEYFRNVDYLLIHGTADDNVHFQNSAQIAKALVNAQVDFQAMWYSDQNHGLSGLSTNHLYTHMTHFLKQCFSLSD
Experimental: Extracts of 293-FAP cells were prepared, using an extraction buffer (0.15M NaCl, 0.05M Tris-HCl, pH 7.4, 10 mM MgCl2, 1 percent Triton X-114), were cleared by centrifugation (4,000×g, 10 minutes at 40° C.), and phase partitioned at 37° C. for 10-20 minutes. This was followed by further centrifugation (4000×g, 20 minutes at 20-25° C.) Detergent phases were diluted with buffer (0.15M NaCl, 0.05M Tris-HCl pH 7.4, 5 mM CaCl2, 5 mM MgCl2, 0.75% Empigen BB), and separated on concanavalin A-Sepharose following Rettig et al., supra. Any concanavalin A bound fractions were eluted with 0.25M methyl-α-D-mannopyranoside in elution buffer 0.15M NaCl,0.05M Tris-HCl, pH 7.4, 5 mM CaCl2, 5 mM MgCl2, 0.1% Triton X-100), mixed with zymography sample buffer (0.25M Tris-HCl, pH 6.8, 8% SDS, 40% glycerol, 0.01% bromophenol blue), at a 3:1 ratio, and used for further analysis.
Aliquots of sample were loaded onto polyacrylamide gels containing 0.1% of either of gelatin or casein. Electrophoresis was then carried out in a Biorad Mini-Protein II system,.at 20 mA constant current for 1.5-2 hours, until the bromophenol blue dye fronts of samples had reached the lower end of the gel. The gel was removed and incubated for one hour at 20-25° C. in a 2.5% aqueous solution of Triton X-100 on a rotary shaker. The Triton X-100 solution was decanted, and replaced with enzyme buffer (0.05M Tris-HCl, pH 7.5, 0.2M NaCl, 5 mM CaCl2, 5 mM MgCl2, 0.02% Brij 35). The gel was then incubated at 37° C. or 41° C., followed by staining or destaining at room temperature. Gels were stained with 0.5% of Coomassie Brilliant Blue G-250 in an aqueous solution of 30% methanol and 10% acetic acid for 15, 30, and 60 minutes, respectively. Subsequently, gels were incubated for 15 minutes in an aqueous solution of 30% CH3OH and 5% glycerol, followed by drying between sheets of cellophane.

[1] = molecular target: fibroblast activation protein alpha (human) (UniProt Q12884); test: MHA rosetting assay on SW872 liposarcoma cells
[2] = molecular target: fibroblast activation protein alpha (human) (UniProt Q12884); test: MHA rosetting assay on COS-1 cells transfected with pFAP.38
casein = test: Casein zymography of 293-FAP cell extracts; type: biochemical; settings: gel with 0.1% casein
Experimental: (§1) Extracts of 293-FAP cells were prepared, using an extraction buffer (0.15M NaCl, 0.05M Tris-HCl, pH 7.4, 10 mM MgCl2, 1 percent Triton X-114), were cleared by centrifugation (4,000×g, 10 minutes at […]), and phase partitioned at 37° C. for 10-20 minutes. This was followed by further centrifugation (4000×g, 20 minutes at 20-25° C.) Detergent phases were diluted with buffer (0.15M NaCl, 0.05M Tris-HCl pH 7.4, 5 mM CaCl2, 5 mM MgCl2, 0.75% Empigen BB), and separated on concanavalin A-Sepharose following Rettig et al., supra. Any concanavalin A bound fractions were eluted with 0.25M methyl-α-D-mannopyranoside in elution buffer 0.15M NaCl,0.05M Tris-HCl, pH 7.4, 5 mM CaCl2, 5 mM MgCl2, 0.1% Triton X-100), mixed with zymography sample buffer (0.25M Tris-HCl, pH 6.8, 8% SDS, 40% glycerol, 0.01% bromophenol blue), at a 3:1 ratio, and used for further analysis.
(§2) Aliquots of sample were loaded onto polyacrylamide gels containing 0.1% of either of gelatin or casein. Electrophoresis was then carried out in a Biorad Mini-Protein II system,.at 20 mA constant current for 1.5-2 hours, until the bromophenol blue dye fronts of samples had reached the lower end of the gel. The gel was removed and incubated for one hour at 20-25° C. in a 2.5% aqueous solution of Triton X-100 on a rotary shaker. […]

gelatin = test: Gelatin zymography of 293-FAP cell extracts; type: biochemical; settings: unboiled samples, approximately 170 kilodalton species
Experimental: as §1
as §2, with “gel.” for “gel. The gel was removed and incubated for one hour at 20-25° C. in a 2.5% aqueous solution of Triton X-100 on a rotary shaker.”
Gelatinase activity was evaluated in accordance with Kleiner et al., Anal. Biochem. 218: 325-329 (1994), incorporated by reference in its entirety. […]

[3] = Membrane overlay assay for proteolytic activity; type: biochemical; settings: Ala-Pro-, Gly-Pro-, Lys-Pro-7-amino-4-trifluoromethyl coumarin
Experimental: Proteolytic activity for defined amino acid sequence motifs were tested, using a well known membrane overlay assay. See Smith et al, Histochem. J. 24(9): 637-647 (1992), incorporated by reference. Substrates were Ala-Pro-7-amino-4-trifluoromethyl coumarin, Gly-Pro-7-amino-4-trifluoromethyl coumarin, and Lys-Pro-7-amino-4-trifluromethyl coumarin.

## O=C(O)CN(CCN(CC(=O)O)CC(=O)O)CC(=O)O [ethylenediamine N,N,N′,N′-tetraacetic acid]
170 kD FAPα dimer; 10 mM added to incubation buffer for gelatin zymography
  effect on gelatin degrading enzymatic activity: None of these treatments abolished the enzymatic activity

## monoclonal antibody F19
[1]
  Cell surface antigen expression (% positive cells): > 95%
[2]
  Cell surface antigen expression (% positive cells): 40%

## OCCS [2-mercaptoethanol]
170 kD FAPα dimer; 5% added to extracts prior to SDS-PAGE
  effect on gelatin degrading enzymatic activity: None of these treatments abolished the enzymatic activity

## NC(=O)CI [iodoacetamide]
170 kD FAPα dimer; 5 um added to extracts prior to SDS-PAGE
  effect on gelatin degrading enzymatic activity: None of these treatments abolished the enzymatic activity

B1: FAPα: recombinant fibroblast activation protein alpha from 293-FAP cells, approximately 170 kilodalton dimeric species by SDS-PAGE of unboiled samples (protein)
chain: MKTWVKIVFGVATSAVLALLVMCIVLRPSRVHNSEENTMRALTLKDILNGTFSYKTFFPNWISGQEYLHQSADNNIVLYNIETGQSYTILSNRTMKSVNASNYGLSPDRQFVYLESDYSKLWRYSYTATYYIYDLSNGEFVRGNELPRPIQYLCWSPVGSKLAYVYQNNIYLKQRPGDPPFQITFNGRENKIFNGIPDWVYEEEMLPTKYALWWSPNGKFLAYAEFNDKDIPVIAYSYYGDEQYPRTINIPYPKAGAKNPVVRIFIIDTTYPAYVGPQEVPVPAMIASSDYYFSWLTWVTDERVCLQWLKRVQNVSVLSICDFREDWQTWDCPKTQEHIEESRTGWAGGFFVSRPVFSYDAISYYKIFSDKDGYKHIHYIKDTVENAIQITSGKWEAINIFRVTQDSLFYSSNEFEEYPGRRNIYRISIGSYPPSKKCVTCHLRKERCQYYTASFSDYAKYYALVCYGPGIPISTLHDGRTDQEIKILEENKELENALKNIQLPKEEIKKLEVDEITLWYKMILPPQFDRSKKYPLLIQVYGGPCSQSVRSVFAVNWISYLASKEGMVIALVDGRGTAFQGDKLLYAVYRKLGVYEVEDQITAVRKFIEMGFIDEKRIAIWGWSYGGYVSSLALASGTGLFKCGIAVAPVSSWEYYASVYTERFMGLPTKDDNLEHYKNSTVMARAEYFRNVDYLLIHGTADDNVHFQNSAQIAKALVNAQVDFQAMWYSDQNHGLSGLSTNHLYTHMTHFLKQCFSLSD
casein
  proteolytic activity with casein as substrate: not observed
gelatin
  gelatin degrading activity: observed to have gelatin degrading activity
[3]
  cleavage of dipeptide substrates: able to cleave all of the Ala-Pro, Gly-Pro, and Lys-Pro dipeptides tested
